The record followed here is publication doi:10.1101/2024.07.23.604771.

This assay has as its target FLAG-2xStrep-PNO1 (UniProt Q9NRX1). The assay can be described thus: co-IP.
Chain of UniProt Q9NRX1 (Q9NRX1 whole entry): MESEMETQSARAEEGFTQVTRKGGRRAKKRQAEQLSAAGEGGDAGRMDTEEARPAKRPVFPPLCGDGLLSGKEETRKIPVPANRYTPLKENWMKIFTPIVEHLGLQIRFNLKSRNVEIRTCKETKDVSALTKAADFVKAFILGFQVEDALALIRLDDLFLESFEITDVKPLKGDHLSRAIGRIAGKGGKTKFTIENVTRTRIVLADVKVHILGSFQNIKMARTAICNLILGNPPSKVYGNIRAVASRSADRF

For the substance “EMG1 (from UniProt Q92979 1-244) (natural protein)”, the fold increase of association, lytic against latent cells was determined as 3 fold.
